Laboratory results published in publication PMC3431356, “Staphylococcus aureus Methicillin-Resistance Factor fmtA Is Regulated by the Global Regulator SarA” (PLoS ONE, 2012).

Molecular target: the molecule itself
Assay: SEC; Superdex 75 (10/300) column, 50 mM sodium phosphate pH 7.0, 0.4 mL/min, calibrated with four standards (LMW calibration kit); mass estimated from elution

B1: staphylococcal accessory regulator A (SarA) (natural protein)
chain: MAITKINDCFELLSMVTYADKLKSLIKKEFSISFEEFAVLTYISENKEKEYYLKDIINHLNYKQPQVVKAVKILSQEDYFDKKRNEHDERTVLILVNAQQRKKIESLLSRVNKRITEANNEIEL
notes: SarA, Staphylococcus aureus strain MRSA252; the 375 bp sarA coding region cloned in pET22b with the pelB leader removed; a 124-residue protein; the entry of strain MRSA252 is not recalled; No tag is described; The reverse primer appears to carry stop codons before the HindIII site, so the His tag of pET22b is probably not on the protein (surmise); Observed mass 14,635 D, theoretical mass 14,586 …
stoichiometry N: 2
